Legend:
[1] = target: NasT (His-tagged recombinant P. denitrificans NasT) (Paracoccus denitrificans PD1222); assay: SEC; analytical Superdex 200 HR 10/30, equilibration buffer supplemented with 1 mM NO3-; fractions analysed by SDS-PAGE
NasS-NasT = target: T1, NasS-NasT (Paracoccus denitrificans, UniProt A1BAH4); assay: intrinsic tryptophan fluorescence quench (ex […] nm, em […] nm); format: binding; details: read-out: KD^app
T1 construct: gene Pden_4454; co-expressed from pET-24a/nasTS in E. coli BL21(DE3); N-terminal His6-tag on NasT (tag kept), NasS untagged; NasS ~42 kDa, NasT ~22 kDa; heterotetramer ~132 kDa (two NasS, two NasT); with Response regulator NasT, ANTAR domain-containing positive regulator
T1 sequence (A1BAH4 1-390): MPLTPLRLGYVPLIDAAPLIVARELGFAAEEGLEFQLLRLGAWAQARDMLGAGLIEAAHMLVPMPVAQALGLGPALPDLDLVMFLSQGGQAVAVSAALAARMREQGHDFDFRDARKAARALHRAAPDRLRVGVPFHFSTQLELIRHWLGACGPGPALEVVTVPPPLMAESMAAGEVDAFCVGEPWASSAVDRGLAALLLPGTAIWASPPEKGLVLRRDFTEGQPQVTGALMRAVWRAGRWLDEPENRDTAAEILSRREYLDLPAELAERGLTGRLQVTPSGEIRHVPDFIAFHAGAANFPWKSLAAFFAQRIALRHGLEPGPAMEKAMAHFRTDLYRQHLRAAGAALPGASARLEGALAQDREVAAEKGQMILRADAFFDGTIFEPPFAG
T1 sequence (A1BAH5 1-196 partner): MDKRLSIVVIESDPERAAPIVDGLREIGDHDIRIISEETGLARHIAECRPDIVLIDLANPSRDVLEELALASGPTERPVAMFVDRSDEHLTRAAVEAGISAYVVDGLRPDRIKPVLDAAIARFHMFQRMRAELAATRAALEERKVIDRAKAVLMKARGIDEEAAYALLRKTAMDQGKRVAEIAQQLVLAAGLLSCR

[2] = target: NasT (His-tagged recombinant P. denitrificans NasT) (Paracoccus denitrificans PD1222); assay: AUC; sedimentation equilibrium of the purified complex, no NO3-; 50 mM NaHEPES, 100 mM NaCl, pH 7.5; 7.5, 12 and 16 krpm; 10 uM protein; ideal one-component fit

Compound | Kd (NasS-NasT) | also measured
NasT (His-tagged recombinant P. denitrificans NasT) (natural protein) |  | stoichiometry N [1]: 6 monomers
O=[N+]([O-])O [NO3^−] | 15 ± 2 µM | 
NasS (recombinant P. denitrificans NasS) (natural protein) |  | stoichiometry N (NasS per NasT (2:2)) [2]: 1
O=NO [NO2^−] | 94 ± 12 µM | 
